Experimental data taken from paper PMC4040282 (Physical chemistry chemical physics : PCCP, 2014).
Like-named read-outs stand apart in the source and are kept apart here.

What was measured:
[1] = biological target: T1, N-terminal hexahistidine-NFκB (His6-p50(39-350)/RelA(19-321)) heterodimer (UniProt P25799 39-350; Q04207 19-321); test: stopped-flow fluorescence
[2] = biological target: (p50(248-350)/RelA(190-321)) heterodimer, biotinylated (murine, UniProt P25799 248-350; Q04207 190-321, biotin PEO maleimide (on the added N-terminal cysteine)); test: SPR
[3] = biological target: T1, N-terminal hexahistidine-NFκB …; test: stopped-flow fluorescence; remark: listed apart in the source

Row | kon [1] | Kd [2] | kon [3] | Binder
1 | 1.4e+07 M⁻¹ s⁻¹ | 0.172 ± 0.004 nM | – | Human wild-type IκBα(67-287) (domain or fragment, UniProt P25963 67-287, looked up) KQQLTEDGDSFLHLAIIHEEKALTMEVIRQVKGDLAFLNFQNNLQQTPLHLAVITNQPEIAEALLGAGCDPELRDFRGNTPLHLACEQGCLASVGVLTQSCTTPHLHSILKATNYNGHTCLHLASIHGYLGIVELLVSLGADVNAQEPCNGRTALHLAVDLQNPDLVSLLLKCGADVNRVTYQGYSPYQLTWGRPSTRIQQQLGQLTLENLQMLPESEDEE
2 | 1.1e+07 M⁻¹ s⁻¹ | 0.155 ± 0.014 nM | 3.8e+06 M⁻¹ s⁻¹ | IκBα(67-287) E282W (domain or fragment, human, UniProt P25963 67-287, looked up) KQQLTEDGDSFLHLAIIHEEKALTMEVIRQVKGDLAFLNFQNNLQQTPLHLAVITNQPEIAEALLGAGCDPELRDFRGNTPLHLACEQGCLASVGVLTQSCTTPHLHSILKATNYNGHTCLHLASIHGYLGIVELLVSLGADVNAQEPCNGRTALHLAVDLQNPDLVSLLLKCGADVNRVTYQGYSPYQLTWGRPSTRIQQQLGQLTLENLQMLPWSEDEE
3 | 1.4e+07 M⁻¹ s⁻¹ | 0.462 ± 0.008 nM | – | IκBα(67-287) P261F (domain or fragment, human, UniProt P25963 67-287, looked up) KQQLTEDGDSFLHLAIIHEEKALTMEVIRQVKGDLAFLNFQNNLQQTPLHLAVITNQPEIAEALLGAGCDPELRDFRGNTPLHLACEQGCLASVGVLTQSCTTPHLHSILKATNYNGHTCLHLASIHGYLGIVELLVSLGADVNAQEPCNGRTALHLAVDLQNPDLVSLLLKCGADVNRVTYQGYSPYQLTWGRFSTRIQQQLGQLTLENLQMLPESEDEE
